The record followed here is the Immune Epitope Database (IEDB).

One assay has as its target HLA-A*01:01. Put plainly: IEDB peptide-MHC binding, purified MHC/direct/fluorescence; filed as Kd, often an IC50 or EC50 that approximates it; ≥ and ≤ were set here for values at or beyond the usual limits of such assays.
The next assay concerns the target HLA-A*80:01. The assay is described as above.
The target in the next assay is HLA-A*24:02. The description is as above.
The target of a further assay is HLA-A*29:02. Described as above.
The target of another assay is HLA-A*31:01. The description is as above. The settings on record: source organism: West Nile virus.
The target of assay [1] is HLA-A*69:01. The assay is described as above. The settings on record: source organism: West Nile virus.
Assay [2] deals with HLA-B*18:01. The assay is described as above.
Another assay has as its target HLA-B*27:05. The description is as above.
A further assay addresses HLA-B*40:01. Described as above.
In a further assay the target is HLA-B*44:02. The assay is described as above.
Assay [3] deals with HLA-B*46:01. The description is as above.
A further assay has as its target HLA-B*48:01. Described as above. The settings on record: source organism: West Nile virus.
In assay [4] the target is HLA-B*57:01. Described as above. The settings on record: source organism: West Nile virus.
The next assay addresses HLA-B*58:01. The assay is described as above.
A further assay concerns the target HLA-A*23:01. The description is as above.
Another assay has as its target HLA-A*24:03. The description is as above.
Another assay concerns the target HLA-A*02:03. Described as above.
The next assay concerns the target HLA-A*02:11. Described as above.
Another assay has as its target HLA-A*02:12. The description is as above.
The target of another assay is HLA-A*02:16. Described as above.
For another assay, the target named is HLA-A*02:19. Described as above.
The target in the next assay is HLA-A*11:01. Described as above.
A further assay concerns the target HLA-A*68:02. The description is as above.
Assay [5] addresses HLA-A*02:01. Briefly: IEDB peptide-MHC binding, purified MHC/competitive/fluorescence; filed as Kd, often an IC50 or EC50 that approximates it; ≥ and ≤ were set here for values at or beyond the usual limits of such assays.
For a further assay, the target named is HLA-A*26:01. Described as above.
The target of assay [6] is HLA-A*69:01. The assay is described as above.
In another assay the target is HLA-B*15:17. The assay is described as above.
Assay [7] has as its target HLA-B*18:01. The description is as above.
A further assay concerns the target HLA-B*39:01. The description is as above.
In assay [8] the target is HLA-B*46:01. The description is as above.
A further assay addresses HLA-B*51:01. The assay is described as above.
Assay [9] deals with HLA-B*57:01. Described as above.
Another assay has as its target HLA-A*03:01. Put plainly: IEDB peptide-MHC binding, purified MHC/direct/fluorescence; filed as Kd, often an IC50 or EC50 that approximates it; ≥ and ≤ were set here for values at or beyond the usual limits of such assays.
In the next assay the target is HLA-B*27:03. Put plainly: IEDB peptide-MHC binding, purified MHC/competitive/fluorescence; filed as Kd, often an IC50 or EC50 that approximates it; ≥ and ≤ were set here for values at or beyond the usual limits of such assays. The settings on record: source organism: Bacillus anthracis str. A0488.
In assay [10] the target is HLA-A*02:01. Briefly: IEDB peptide-MHC binding, purified MHC/direct/fluorescence; filed as Kd, often an IC50 or EC50 that approximates it; ≥ and ≤ were set here for values at or beyond the usual limits of such assays. The settings on record: source organism: Giardia lamblia ATCC 50803.
The next assay concerns the target HLA-B*07:02. The description is as above. The settings on record: source organism: Giardia lamblia ATCC 50803.
In another assay the target is HLA-B*15:01. The assay is described as above. The settings on record: source organism: Giardia lamblia ATCC 50803.
Setting [11] is: source organism: Bacillus anthracis.
The mark [12] stands for this setting: source organism: Orthohantavirus andesense.
[13] abbreviates: source organism: West Nile virus.
Setting [14] is: source organism: Burkholderia mallei ATCC 23344.
[15] abbreviates: source organism: Bacillus anthracis str. Sterne.
Setting [16] is: source organism: Bacillus anthracis str. A2012.
Where [17] appears, read: source organism: Bacillus cereus 03BB108.
[18] abbreviates: source organism: Bacillus anthracis str. A0488.
Setting [19] is: source organism: Giardia lamblia ATCC 50803.

Regarding VLRACWNEK, the Kd with HLA-A*01:01 (setting [11]) and in the assay with HLA-A*80:01 (setting [11]) was at least 20 µM throughout.
Consider IFQKISFFW, for which the Kd with HLA-A*24:02 (source organism: Cryptosporidium parvum Iowa II) came out at 0.017 µM.
HSDDALFIY: the Kd in the assay with HLA-A*01:01 (setting [12]) is at least 20 µM; with HLA-A*80:01 (setting [12]) it was 16 µM.
MLRKKQITV: the Kd in the assay with HLA-A*01:01 (setting [13]), with HLA-A*29:02 (setting [13]), with HLA-A*31:01, with HLA-A*69:01 [1], with HLA-A*80:01 (setting [13]) and with HLA-B*18:01 [2] (setting [13]) was at least 20 µM in each case. Besides, the Kd with HLA-B*27:05 (setting [13]), with HLA-B*40:01 (setting [13]), with HLA-B*44:02 (setting [13]), with HLA-B*46:01 [3] (setting [13]), with HLA-B*48:01 and with HLA-B*57:01 [4] was at least 20 µM each time. The same sequence displayed a Kd in the assay with HLA-B*58:01 (setting [13]) of at least 20 µM.
Take CYRGVRHRK: the Kd in the assay with HLA-A*23:01 (setting [14]) was 0.41 µM; with HLA-A*24:03 (setting [14]) it was 1.39 µM.
Consider KKNHWFILK, for which the Kd with HLA-A*02:03 (setting [15]) was at least 20 µM; with HLA-A*02:11 (setting [15]) it was at least 20 µM; in the assay with HLA-A*02:12 (setting [15]), at least 20 µM; with HLA-A*02:16 (setting [15]) it was at least 20 µM; with HLA-A*02:19 (setting [15]), at least 20 µM; with HLA-A*11:01 (setting [15]), 0.254 µM. Also, the Kd with HLA-A*23:01 (setting [15]), with HLA-A*24:03 (setting [15]), in the assay with HLA-A*29:02 (setting [15]), in the assay with HLA-A*68:02 (setting [15]), with HLA-A*02:01 [5] (setting [16]) and with HLA-A*26:01 (setting [16]) was at least 20 µM each time. Moreover, the Kd in the assay with HLA-A*69:01 [6] (setting [16]), with HLA-B*15:17 (setting [16]), with HLA-B*18:01 [7] (setting [16]), with HLA-B*39:01 (setting [16]), in the assay with HLA-B*46:01 [8] (setting [16]) and with HLA-B*51:01 (setting [16]) was at least 20 µM each time. The sequence further returned a dissociation constant (Kd) with HLA-B*57:01 [9] (setting [16]) of at least 20 µM.
In the case of SYMLQGLRK, the dissociation constant (Kd) with HLA-A*02:03 (setting [17]), in the assay with HLA-A*02:11 (setting [17]), with HLA-A*02:12 (setting [17]), with HLA-A*02:16 (setting [17]), with HLA-A*02:19 (setting [17]) and in the assay with HLA-A*03:01 (setting [17]) was at least 20 µM each time. Moreover, the Kd with HLA-A*11:01 (setting [17]) is 0.228 µM; with HLA-A*23:01 (setting [17]), at least 20 µM; in the assay with HLA-A*24:03 (setting [17]), at least 20 µM; with HLA-A*68:02 (setting [17]), at least 20 µM; with HLA-A*02:01 [5] (setting [18]) it was at least 20 µM; with HLA-A*26:01 (setting [18]) it was at least 20 µM. Further, the Kd in the assay with HLA-A*69:01 [6] (setting [18]), with HLA-B*15:17 (setting [18]), with HLA-B*18:01 [7] (setting [18]), with HLA-B*27:03, with HLA-B*39:01 (setting [18]) and with HLA-B*46:01 [8] (setting [18]) was at least 20 µM throughout. Besides, the Kd with HLA-B*51:01 (setting [18]) and with HLA-B*57:01 [9] (setting [18]) was at least 20 µM in each case.
WLKEKHEEL: the Kd is at least 20 µM with HLA-A*01:01 (setting [19]); 0.304 µM with HLA-A*02:01 [10]; at least 20 µM with HLA-A*03:01 (setting [19]); at least 20 µM in the assay with HLA-A*11:01 (setting [19]); at least 20 µM with HLA-A*24:02 (setting [19]); at least 20 µM with HLA-B*07:02. Further, the equilibrium dissociation constant (Kd) is 0.498 µM with HLA-B*15:01; at least 20 µM with HLA-B*18:01 [2] (setting [19]); at least 20 µM with HLA-B*27:05 (setting [19]); at least 20 µM with HLA-B*40:01 (setting [19]); at least 20 µM with HLA-B*44:02 (setting [19]); at least 20 µM with HLA-B*46:01 [3] (setting [19]). Besides, the Kd with HLA-B*58:01 (setting [19]) was at least 20 µM.

As a reminder, the Kd is the free concentration of one partner at which half of the binding sites on the other are occupied at equilibrium, for simple one-to-one binding. High values mean a looser complex, low ones a tighter complex.
